The values below come from publication PMC5245964 (2017).

In the test the target is MBP-M18BP1^1-140-8His (Homo sapiens (Human), UniProt Q6P0N0). Nature of the test: amylose-resin pull-down, CBB-stained gel; Mis18β Yippee domain alone does not bind; binding requires the Mis18α:Mis18β Yippee heterodimer (Mis18α Yippee domain present).
Sequence of MBP-M18BP1^1-140-8His (Q6P0N0 1-140, one chain of several): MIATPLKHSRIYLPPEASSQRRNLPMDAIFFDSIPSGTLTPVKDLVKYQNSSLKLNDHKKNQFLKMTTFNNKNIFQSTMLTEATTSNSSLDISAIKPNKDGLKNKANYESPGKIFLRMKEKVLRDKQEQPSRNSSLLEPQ

B1: 6His-Mis18β^73-189 (protein)
chain: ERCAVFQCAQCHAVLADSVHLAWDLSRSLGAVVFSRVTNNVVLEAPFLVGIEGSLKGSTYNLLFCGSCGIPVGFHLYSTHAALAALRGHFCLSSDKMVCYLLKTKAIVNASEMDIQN
Take B1: the binding result is given as “no binding”.
